Test results published in publication PMC4948871, “The Molecular Mechanism of Ethylene-Mediated Root Hair Development Induced by Phosphate Starvation”.

T1: GST-EIN3(141-352) (Arabidopsis thaliana, UniProt O24606 141-352)
T1 sequence: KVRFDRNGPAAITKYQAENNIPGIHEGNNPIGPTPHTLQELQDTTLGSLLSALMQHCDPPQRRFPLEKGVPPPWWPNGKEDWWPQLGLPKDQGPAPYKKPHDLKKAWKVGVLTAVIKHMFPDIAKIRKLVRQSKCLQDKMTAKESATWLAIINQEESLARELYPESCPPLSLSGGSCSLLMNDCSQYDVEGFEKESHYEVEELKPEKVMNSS

B1: PRP1-P4 (dsDNA)
DNA 1: AACAGATGAACGACATAACAGATGAACGACATAACAGATGAACGACATAACAGATGAACGACAT
DNA 2: ATGTCGTTCATCTGTTATGTCGTTCATCTGTTATGTCGTTCATCTGTTATGTCGTTCATCTGTT
B2: RHS19-P1 (dsDNA)
DNA 1: TCTGCACGAATGTCACTCTGCACGAATGTCACTCTGCACGAATGTCACTCTGCACGAATGTCAC
DNA 2: GTGACATTCGTGCAGAGTGACATTCGTGCAGAGTGACATTCGTGCAGAGTGACATTCGTGCAGA
B3: EXT14-P2 (dsDNA)
DNA 1: TGCATATGAATTAACATGCATATGAATTAACATGCATATGAATTAACATGCATATGAATTAACA
DNA 2: TGTTAATTCATATGCATGTTAATTCATATGCATGTTAATTCATATGCATGTTAATTCATATGCA
B4: RHS15-P2 (dsDNA)
DNA 1: GACAAATGAATTCGGAGACAAATGAATTCGGAGACAAATGAATTCGGAGACAAATGAATTCGGA
DNA 2: TCCGAATTCATTTGTCTCCGAATTCATTTGTCTCCGAATTCATTTGTCTCCGAATTCATTTGTC

Target: T1, GST-EIN3(141-352)
Assay: EMSA; competed by 500x unlabelled probe; 25 mM HEPES-KOH pH 7.5, 100 mM KCl, 0.1 mM EDTA, 10% glycerol, 1 mM DTT, 1 ug poly(dI-dC), 0.1 ug protein in 20 uL, room temperature 30 min; 5.5% PAGE in 0.5x TBE
Details: protein: recombinant; tags: GST (pGEX-6p-1); chain copies: 2; label: biotin; blunt

Binder	binding result
B1	binds
B2	binds
B3	binds
B4	binds
